Laboratory results from the supplement of paper PMC7125110.
± gives the standard error. This sample holds only a part of the variants without activity.

B1: glmS ribozyme (parent)
chain: AUAAAAGCGCCAGAACUACAGAAAUGUAGUUGACGAGGAGGAGGUUUAUCGAAUUUUCGGCGGAUGCCUCCAAA

Legend:
Conditions in all cases: with glucosamine-6-phosphate
[1] = variants of: B1; assay: self-cleavage kobs at 160 uM GlcN6P; higher = faster cleavage; RNA array
How it was run: (§1)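 Barcoded ribozyme variants on sequenced MiSeq chips were transcribed in situ by E. coli RNA polymerase and followed at 37 °C through a hybridised Cy3 probe. Glucosamine-6-phosphate at 40 μM to 10 mM in HEPES/KCl/Mg(OAc)2 buffer was flowed in, and tiles were imaged over ~14 h. Signals were normalised to baseline and to non-cleaving reference variants, and per-tile medians were fit to one- or two-exponential decays to give kobs. Weighted Michaelis–Menten fits across concentrations gave kcat and KM.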

[2] = variants of: B1; assay: self-cleavage kobs at 640 uM GlcN6P; higher = faster cleavage; RNA array
How it was run: as §1

[3] = variants of: B1; assay: self-cleavage kobs at 10000 uM GlcN6P; higher = faster cleavage; RNA array
How it was run: as §1

[4] = variants of: B1; assay: self-cleavage kobs at 2500 uM GlcN6P; higher = faster cleavage; RNA array
How it was run: as §1

Variant	self-cleavage kobs at 160 uM GlcN6P [1] [s⁻¹]	self-cleavage kobs at 640 uM GlcN6P [2] [s⁻¹]	self-cleavage kobs at 10000 uM GlcN6P [3] [s⁻¹]	self-cleavage kobs at 2500 uM GlcN6P [4] [s⁻¹]
A39C C50A A52U	< 1e-05	< 1e-05	–	–
A39C U54G	0.000221 ± 9.6e-05	0.00106 ± 0.00043	0.005 ± 0.0012	–
A15U C50A A64U C71U	< 1e-05	–	–	–
A12U G29A C68U	0.000209 ± 5.1e-05	0.000265 ± 6.4e-05	0.00275 ± 0.0012	0.0017 ± 0.0004
U17C C50G C71U	6.74e-05 ± 2.2e-05	0.000319 ± 9.7e-05	–	0.000253 ± 4.6e-05
A12U A14U A15U	0.000236 ± 5.9e-05	0.00051 ± 0.00013	–	0.00219 ± 0.00059
A14C G40U G43C C50U	< 1e-05	–	–	< 1e-05
C50A U57G U65C C70G	8.04e-05 ± 2.6e-05	0.000128 ± 3.7e-05	3.25e-05 ± 1.6e-05	0.000108 ± 3.5e-05
U57G C68U C71U	4.43e-05 ± 1.8e-05	–	–	5.05e-05 ± 2.4e-05
G32A A39G U46C	–	0.000174 ± 4.5e-05	–	0.000355 ± 0.00011
G13A A53C C67G	< 1e-05	< 1e-05	< 1e-05	–
G44U C71G	< 1e-05	< 1e-05	< 1e-05	–
A15C C58U C61A	0.0001 ± 4.6e-05	6.79e-05 ± 2.5e-05	–	–
G44A C61U	< 1e-05	< 1e-05	< 1e-05	< 1e-05
C16U G38U U54C G66U C71A	< 1e-05	< 1e-05	–	–
A12U G60U C70G	< 1e-05	–	–	–
G26U A52G	9.82e-05 ± 2.9e-05	–	–	0.000726 ± 0.00017
U54C U55A	0.00144 ± 0.00036	0.00609 ± 0.0028	–	0.00974 ± 0.0036
C11U G37C A39U U47G	< 1e-05	–	–	–
C50U C61A	9.85e-05 ± 4.8e-05	2.67e-05 ± 1.1e-05	–	3.11e-05 ± 1e-05
A12C G32U A64G C70U	–	< 1e-05	–	–
A6U G38C A64U G66U	< 1e-05	< 1e-05	–	< 1e-05
C10U A12U G40U A48G G60A	7.46e-05 ± 2.7e-05	–	–	–
U30C G35C	< 1e-05	< 1e-05	< 1e-05	< 1e-05
U30C G41C U49G G51U C58A	< 1e-05	–	–	–
